The target of assay [1] is TopBP1 (UniProt Q92547). Nature of the assay: TopBP1 antibody co-IP, E2 Western blot. The note with it: reference: E2-WT; sites S23.
Assay [2] addresses TopBP1 (UniProt Q92547). Nature of the assay: TopBP1 antibody co-IP, E2 Western blot. Conditions: reference: E2-WT; sites S23. The source holds these as a separate data set.
Assay [3] deals with T1, GST TopBP1 (aa 32 to 1522) His (UniProt Q92547 32-1522).
T1 construct: also called GST-tagged TopBP1; recombinant GST-TopBP1 (full length); source: E. coli BL21(DE3), purified (Glutathione Sepharose 4B, size exclusion chromatography)
In words: pull-down. Conditions: both partners purified.

With HPV16 E2 (from UniProt P03120) E2-S23A, the “binding against the reference” value in the assay with TopBP1 [1] and in the assay with TopBP1 [2] was “weaker” throughout.

B1: His-E2-S23D (amino acids 1 to 200) (domain or fragment)
chain: METLCQRLNVCQDKILTHYENDDTDLRDHIDYWKHMRLECAIYYKAREMGFKHINHQVVPTLAVSKNKALQAIELQLTLETIYNSQYSNEKWTLQDVSLEVYLTAPTGCIKKHGYTVEVQFDGDICNTMHYTNWTHIYICEEASVTVVEGQVDYYGLYYVHEGIRTYFVQFKDDAEKYSKNKVWEVHAGGQVILCPTSVF
notes: source: E. coli BL21(DE3), purified (Ni-NTA agarose, size exclusion chromatography)
Turning to B1, in assay [3], the binding result is “binds”.

Values taken from paper PMC8546539, “CK2 Phosphorylation of Human Papillomavirus 16 E2 on Serine 23 Promotes Interaction with TopBP1 and Is Critical for E2 Interaction with Mitotic Chromatin and the Viral Life Cycle” (mBio, 2021).
